Assay results as given in patent US7553821B2, “Methods for selectively modulating survivin apoptosis pathways” (Yale University, priority 2000, dated 2009).

Target: T1, Cdk2-cyclin E (Homo sapiens, UniProt P24941)
T1 construct: host or cells: baculovirus expression system
Assay: In vitro kinase assay with Cdk2-cyclin E
Format: biochemical
Settings: recombinant protein as substrate, control experiment, autoradiography
Protocol: FIG. 1B. In vitro kinase assay. Wild type (WT) survivin, survivin(T34A) (T34A), or control (H1) were incubated with baculovirus-expressed p34^cdc2-cyclin B1 or cdk2-cyclin E in kinase buffer plus 10 μCi γ-^32P-ATP for 30 min at 30° C. Samples were separated by SDS gel electrophoresis and radioactive bands were visualized by autoradiography. Equal protein loading was confirmed by Coomassie blue staining of the gel.
Transfection experiments. For transient transfection, HeLa cells in C-6 tissue culture plates (Costar, Cambridge, Mass.) at ˜60-70% confluency, were incubated in 1 ml of serum-free OptiMEM medium (Life Technologies, Gaithersburg, Md.) for 20 min, and transfected with 2.5 μg of the various plasmid cDNAs plus 9 μl Lipofectamine (Life Technologies). After a 5 h incubation at 37° C., the mixture was aspirated and substituted with complete growth medium for 48-72 h. To generate stable YUSAC-2 transfectants, a survivin(T34A) cDNA was inserted into the HindIII-SpeI sites of the pTet-splice vector (Dr. D. Schatz, Yale University School of Medicine), downstream of the regulatory sequences of the Tet-resistance operon (TetO). […] Gated GFP-expressing cells were analyzed for DNA content by flow cytometry on a FACSort (Becton Dickinson, San Jose, Calif.) using a Cell Quest software. […]

Substance: survivin(T34A): dominant-negative, non-phosphorylatable survivin mutant with Thr34→Ala substitution, expressed from transfected cDNA (also HA- or GFP-tagged)
- phosphorylation by Cdk2-cyclin E: did not phosphorylate
